target: arfg1_rat Arfgap1 (UniProt Q62848)
Sequence (Q62848 whole entry): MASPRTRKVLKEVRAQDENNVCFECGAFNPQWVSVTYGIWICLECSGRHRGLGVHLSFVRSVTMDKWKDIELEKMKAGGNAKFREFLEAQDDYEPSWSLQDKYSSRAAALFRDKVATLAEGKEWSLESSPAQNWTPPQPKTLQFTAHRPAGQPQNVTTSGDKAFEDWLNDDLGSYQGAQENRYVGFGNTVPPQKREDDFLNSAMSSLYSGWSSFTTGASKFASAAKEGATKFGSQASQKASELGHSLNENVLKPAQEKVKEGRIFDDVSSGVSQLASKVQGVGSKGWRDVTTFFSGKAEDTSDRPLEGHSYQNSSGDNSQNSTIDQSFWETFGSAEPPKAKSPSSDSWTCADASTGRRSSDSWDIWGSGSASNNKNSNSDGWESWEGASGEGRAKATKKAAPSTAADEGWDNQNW

Row | effect of a mutation on the interaction | Substance
1 | increasing interaction | Leucine-rich repeat serine/threonine-protein kinase 2 (Homo sapiens), Q5S007 R1441C
2 | decreasing interaction | Leucine-rich repeat serine/threonine-protein kinase 2 (Homo sapiens), Q5S007 R1398L

Continued, substance first:

Row | Substance | effect of a mutation on the interaction
3 | Leucine-rich repeat serine/threonine-protein kinase 2 (Homo sapiens), Q5S007 Y1699C | increasing interaction
4 | Leucine-rich repeat serine/threonine-protein kinase 2 (Homo sapiens), Q5S007 G2019S | increasing interaction
5 | Leucine-rich repeat serine/threonine-protein kinase 2 (Homo sapiens), Q5S007 T1348N | decreasing interaction

Reference: IntAct's records for PubMed 22363216
